In the assay the target is extracellular soluble part of EGFR (sEGFR) (UniProt P00533). Description: SPR.

EGF (ligand) returned a Kd of 60 nM.

The values are drawn from PMC5776806.
